Laboratory results published in patent US20250230247A1 (DREN BIO, published 2025).
Substitutions are numbered along the chain they refer to.

T1: human Dectin-1 (biosensor tests of Tables 3, 4A and 9; construct not stated) (human, UniProt Q9BXN2 66-247, limits assumed)
T1 construct: also called hDectin-1
T1 sequence (looked up): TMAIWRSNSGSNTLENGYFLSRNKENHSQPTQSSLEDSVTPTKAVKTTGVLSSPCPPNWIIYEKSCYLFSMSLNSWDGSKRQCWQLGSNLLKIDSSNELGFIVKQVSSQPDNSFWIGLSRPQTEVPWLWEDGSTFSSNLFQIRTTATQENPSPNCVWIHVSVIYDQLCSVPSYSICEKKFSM

T2: human Dectin-1 isoform A (human, UniProt Q9BXN2 1-247)
T2 construct: also called hDectin-1a; Dectin-1 on HEK-Blue hDectin-1a cells
T2 sequence: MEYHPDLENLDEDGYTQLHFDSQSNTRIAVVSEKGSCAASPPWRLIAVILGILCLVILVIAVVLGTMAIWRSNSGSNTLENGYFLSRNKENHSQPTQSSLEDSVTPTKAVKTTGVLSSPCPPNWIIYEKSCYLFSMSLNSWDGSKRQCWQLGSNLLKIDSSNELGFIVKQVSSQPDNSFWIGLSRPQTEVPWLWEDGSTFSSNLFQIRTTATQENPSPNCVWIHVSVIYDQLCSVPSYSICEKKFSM

B1: 2M24A.1.23 (Fab, V domains shown)
VH: QVQLVQSGAEVKKPGASVKVSCKSSGYTFTDYYIHWVRQAPGQGLEWMGWINPNSGDTNYAQKFQGRITMTRDTSISTAYLELSRLRSDDTAVFYCARNSGSYSFGYWGQGTLVTVSS
VL: DIQMTQSPSSVSASVGDRVTITCRASQGISSWLAWYQQKPGKAPKLLIFGASSLQSGVPSRFSGSGSGTDFTLTVSSLQPEDFATYYCAQAYSFPFTFGPGTKVDIE
notes: Fab; also called 2M24.1.23
B2: 2M24A.1.26 (Fab, V domains shown)
VH: B1 VH
VL: B1 VL with A89Q, F94A
notes: Fab; also called 2M24.1.26
B3: 2M24A.1.29 (Fab, V domains shown)
VH: B1 VH
VL: B1 VL with A89Q, T97A
notes: Fab; also called 2M24.1.29
B4: 2M24A.1.27 (Fab, V domains shown)
VH: B1 VH
VL: B1 VL with A89Q, P95A
notes: Fab; also called 2M24.1.27
B5: 2M24A.1.28 (Fab, V domains shown)
VH: B1 VH
VL: B1 VL with A89Q, F96A
notes: Fab; also called 2M24.1.28
B6: 2M24A.1.25 (Fab, V domains shown)
VH: B1 VH
VL: B1 VL with A89Q, S93A
notes: Fab; also called 2M24.1.25
B7: 2M24A.1.24 (Fab, V domains shown)
VH: B1 VH
VL: B1 VL with A89Q, Q90A
notes: Fab; also called 2M24.1.24
B8: 2M24A.26 hFab H4 (Fab, V domains shown)
VH: B1 VH with I34M, I68V, L81M, F94Y
VL: B1 VL with A89Q
notes: Fab; also called 2M24.H4
B9: 2M24A.25 hFab H3 (Fab, V domains shown)
VH: B1 VH with S24A, I68V, L81M, F94Y
VL: B1 VL with A89Q
notes: Fab; also called 2M24.H3
B10: 2M24A.27 hFab H5 (Fab, V domains shown)
VH: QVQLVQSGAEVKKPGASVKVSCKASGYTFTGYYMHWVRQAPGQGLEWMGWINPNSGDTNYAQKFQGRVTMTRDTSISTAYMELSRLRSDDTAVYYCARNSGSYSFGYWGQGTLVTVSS
VL: B1 VL with A89Q
notes: Fab; also called 2M24.H5
B11: 2M24A.23 hFab H1 (Fab, V domains shown)
VH: B1 VH with I68V, L81M, F94Y
VL: B1 VL with A89Q
notes: Fab; also called 2M24.H1
B12: 2M24A.24 hFab H2 (Fab, V domains shown)
VH: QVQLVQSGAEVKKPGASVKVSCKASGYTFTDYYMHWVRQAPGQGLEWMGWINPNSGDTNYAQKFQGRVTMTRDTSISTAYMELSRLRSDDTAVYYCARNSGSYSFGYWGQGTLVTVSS
VL: B1 VL with A89Q
notes: Fab; also called 2M24.H2
B13: 2M24 monospecific antibody (Example 18) (antibody, V domains shown)
VH: B1 VH
VL: B1 VL with A89Q
notes: also called parental 2M24 antibody
B14: 2M24.119 monospecific antibody (antibody, V domains shown)
VH: B1 VH with S24A, I34M, S55E, Q65E, L81M, F94Y, S100T, S102A
VL: B1 VL with F49Y, S53D, V75I, A89Q, S93G, E107K
B15: 2M24.116 monospecific antibody (antibody, V domains shown)
VH: B1 VH with S24A, I34M, S55E, G66E, L81M, F94Y, S100T, S102A
VL: B1 VL with F49Y, S53D, V75I, A89H, E107K

Biological target: T1, human Dectin-1 (biosensor tests of …)
Assay: Octet
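Throughout, for delta: Single-point dissociation rate (koff) fit for each variant binding domain, expressed as change versus the parental clone.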
Experimental: Variant binding domains were generated, and binding affinity to human Dectin-1 was measured by biosensor (Octet). Single point off rate fits (k off) were determined for each clone and compared to the parental clone (delta), as shown in FIG. 71.

Row | delta | Binder
1 | 18% | B1
2 | 92% | B2
3 | 23% | B3
4 | 19% | B4
5 | 90% | B5
6 | 9% | B6
7 | 36% | B7

Biological target: T1, human Dectin-1 (biosensor tests of …)
Assay: Octet response; for X = 340: time not given here; for X = 470: time not given here

Row | X = 290 | X = 350 | X = 340 | X = 470 | Binder
8 | 0.128 | 0.104 |  |  | B1
9 |  |  | 0.231 | 0.018 | B2
10 |  |  | 0.456 | 0.35 | B3
11 |  |  | 0.483 | 0.393 | B4
12 |  |  | 0.309 | 0.031 | B5
13 |  |  | 0.475 | 0.432 | B6
14 | 0.115 | 0.073 |  |  | B7

Biological target: T1, human Dectin-1 (biosensor tests of …)
Assay: Fab K dis, run 1

Row | koff | Binder
15 | 0.0053 s⁻¹ | B8
16 | 0.00765 s⁻¹ | B9
17 | 0.00624 s⁻¹ | B10
18 | 0.00841 s⁻¹ | B11
19 | 0.00826 s⁻¹ | B12

Biological target: T1, human Dectin-1 (biosensor tests of …)
Assay: Fab K dis, run 2

Row | koff | Binder
20 | 0.00102 s⁻¹ | B8
21 | 0.00132 s⁻¹ | B9
22 | 0.00195 s⁻¹ | B10
23 | 0.00143 s⁻¹ | B11
24 | 0.000616 s⁻¹ | B12

Biological target: T1, human Dectin-1 (biosensor tests of …)
Assay: Fab K dis, run 3

Row | koff | Binder
25 | 0.0016 s⁻¹ | B8
26 | 0.00214 s⁻¹ | B9
27 | 0.0032 s⁻¹ | B10
28 | 0.00204 s⁻¹ | B11
29 | 0.0015 s⁻¹ | B12

Biological target: T1, human Dectin-1 (biosensor tests of …)
Assay: Fab K dis, average of 3

Row | koff | Binder
30 | 0.00264 s⁻¹ | B8
31 | 0.0037 s⁻¹ | B9
32 | 0.0038 s⁻¹ | B10
33 | 0.00396 s⁻¹ | B11
34 | 0.00346 s⁻¹ | B12

Biological target: T2, human Dectin-1 isoform A
Assay: flow cytometry on HEK Blue Dectin 1a cells (MFI)

Row | EC50 | Binder
35 | 0.343 nM | B13
36 | 0.393 nM | B14
37 | 0.37 nM | B15
